Experimental findings from US20030236190A1 (published 2003) are described below.

Positions of bridges follow the written chain, without caps; N, C: chain ends. No end group written: not given here.

The target of assay [1] is T1, Insulin receptor prepared according to Bass et al., 1996: soluble human insulin receptor-immunoglobulin heavy … (human, UniProt P06213 28-956).
T1 construct: extracellular domain; Eu3+-labelled in TR-FRET; also called IR; sIR-Fc; not shown: immunoglobulin heavy chain constant domains that replace the transmembrane and i
In words: phage ELISA, vs IGF-1R.

The target of assay [2] is T2, Soluble IGF-1R (R&D Systems, Cat. # 391-GR/CF); recombinant human IGF-1R (human, UniProt P08069 31-935).
T2 construct: extracellular domain; Eu3+-labelled in the TR-FRET assays; also called sIGF-1R; rhIGF-1R
Put plainly: phage ELISA vs milk. On the technique in general: An ELISA detects its analyte on a solid surface through an enzyme-linked reagent.

Assay [3] concerns the target T1, Insulin receptor prepared according to …. Put plainly: phage ELISA vs milk.
Assay [4] addresses T2, Soluble IGF-1R (R&D Systems, Cat. # …). In words: phage ELISA, vs IR.

On to SSYGCDGFYLMLFSLGLVASQELEC (disulfide 5-25 (inferred)) [20C-3-A1-IGFR], for which the “IR/IGF-1R Comparison” value in assay [1] was 0.1 ratio. For the same molecule, the “Ratio over Background” value in assay [2] stood at 20.8 fold; in assay [3], 1.5 fold. In assay [4], the “IGF-1R/IR Comparison” value is 13.7 ratio.

LRIANLFYQRLWDLAFGGGG [20E22-3-E8-IGFR]: in assay [1], the “IR/IGF-1R Comparison” value turned out to be 0.1 ratio. Moreover, the “Ratio over Background” value in assay [2] amounted to 16.7 fold; in assay [3] it was 1.5 fold. In assay [4], the “IGF-1R/IR Comparison” value stood at 11.1 ratio.

Regarding HLADGQFHEKFYDWFERQISSRCNDC [H2CA-3-E11-IGFR], in assay [1], the “IR/IGF-1R Comparison” value worked out at 0.5 ratio. Also, the “Ratio over Background” value came to 2.2 fold in assay [2] and 1 fold in assay [3]. In assay [4], the “IGF-1R/IR Comparison” value was 2.2 ratio.

As to DRDFCRFYERLTALVGGQVDGGWPC (disulfide 5-25 (inferred)) [20C-3-F6-IGFR], in assay [1], the “IR/IGF-1R Comparison” value turned out to be 0.1 ratio. Besides, the “Ratio over Background” value in assay [2] was determined as 26.1 fold; in assay [3], 1.9 fold. The “IGF-1R/IR Comparison” value in assay [4] stood at 14.1 ratio.

Regarding GFREGSFYDWFQAQVT [E4Dα-2-D11-IR], the “IR/IGF-1R Comparison” value in assay [1] turned out to be 0.3 ratio. The “Ratio over Background” value turned out to be 11.1 fold in assay [2] and 3.3 fold in assay [3]. Also, the “IGF-1R/IR Comparison” value in assay [4] worked out at 3.4 ratio.

B1: X2CA-2-B4-IGFR (peptide)
peptide: CCLLCRFQQNFYDWFVCQGISRLRPL
modifications: disulfide (positions not given here); also: disulfide among the four cysteines, pairing not given here
On to B1, for which the “IR/IGF-1R Comparison” value in assay [1] came out at 0.3 ratio. Besides, the figures for the “Ratio over Background” value in assay [2] and in assay [3] were 4.1 fold and 1.1 fold, respectively. Moreover, in assay [4], the “IGF-1R/IR Comparison” value worked out at 3.6 ratio.

LQPCSGFYECIERLIGVKLSG (disulfide 4-10 (inferred)) [20E2Bβ-4-G7-IR]: in assay [1], the “IR/IGF-1R Comparison” value was determined as 0.1 ratio. Moreover, the “Ratio over Background” value in assay [2] was 25.2 fold; in assay [3], 1.6 fold. The “IGF-1R/IR Comparison” value in assay [4] came out at 15.8 ratio.

For PPLASDLDVQFYGWFVQQVSPPGRGG [H2CA-2-B3-IGFR], in assay [1], the “IR/IGF-1R Comparison” value was determined as 0.3 ratio. Also, the “Ratio over Background” value came out at 3.8 fold in assay [2] and 1 fold in assay [3]. Further, in assay [4], the “IGF-1R/IR Comparison” value came out at 3.6 ratio.

As for EAASLGSQDRNFYDWFVRQVV [A6S-2-D11-IR], in assay [1], the “IR/IGF-1R Comparison” value stood at 0.4 ratio. Besides, the “Ratio over Background” value in assay [2] stood at 37.4 fold; in assay [3] it was 13.9 fold. For the same molecule, the “IGF-1R/IR Comparison” value in assay [4] turned out to be 2.8 ratio.

Regarding IQQELTFYDLLHRLVRSELGS [20E2B-3-D2-IGFR], the “IR/IGF-1R Comparison” value in assay [1] came to 0.1 ratio. Also, the “Ratio over Background” value turned out to be 12.4 fold in assay [2] and 1.2 fold in assay [3]. In addition, the “IGF-1R/IR Comparison” value in assay [4] amounted to 11.7 ratio.

In the case of RGMKEEVLVGGSTDPFYHKLSELLQGS [B6Hα-3-F11-IR], the “IR/IGF-1R Comparison” value in assay [1] worked out at 0.1 ratio. Besides, the “Ratio over Background” value in assay [2] was 18.7 fold; in assay [3] it was 1.6 fold. Besides, the “IGF-1R/IR Comparison” value in assay [4] is 11.7 ratio.

For LKDGFYDYFWQRLHLGS [NNRPγ-4-B11-IR], the “IR/IGF-1R Comparison” value in assay [1] came out at 0.1 ratio. Further, the figures for the “Ratio over Background” value in assay [2] and in assay [3] were 18.7 fold and 1.2 fold, respectively. The “IGF-1R/IR Comparison” value in assay [4] was 15.5 ratio.

Take FYDAIDQLVRGSARAGGTRD [R20α-3-2082-IR]: the “IR/IGF-1R Comparison” value in assay [1] is 0.1 ratio. In addition, the entries for the “Ratio over Background” value in assay [2] and in assay [3] were 39.9 fold and 3.1 fold, respectively. Also, the “IGF-1R/IR Comparison” value in assay [4] worked out at 12.9 ratio.

Regarding GGTEVDFYRALERLVRGQLGL [20E23-3-D8-IGFR], in assay [1], the “IR/IGF-1R Comparison” value was determined as 0.1 ratio. Further, the “Ratio over Background” value stood at 17.7 fold in assay [2] and 1.6 fold in assay [3]. Besides, the “IGF-1R/IR Comparison” value in assay [4] came out at 11.3 ratio.

FRTLAAQHDSFYDWFDRQVSGAAGER [H2CA-3-C11-IGFR]: the “IR/IGF-1R Comparison” value in assay [1] came out at 0.5 ratio. Also, the figures for the “Ratio over Background” value in assay [2] and in assay [3] were 3.3 fold and 1.6 fold, respectively. The “IGF-1R/IR Comparison” value in assay [4] was found to be 2.1 ratio.

Regarding PDLHKGFYAQLAQLIRGQLLS [20E2H-3-E3-IGFR], the “IR/IGF-1R Comparison” value in assay [1] turned out to be 0.1 ratio. Also, the “Ratio over Background” value in assay [2] stood at 16.3 fold; in assay [3], 1.3 fold. Moreover, the “IGF-1R/IR Comparison” value in assay [4] was 13.1 ratio.

For GNGDGMFYQLLSLLVGRDMHV [20E22-3-C2-IGFR], the “IR/IGF-1R Comparison” value in assay [1] amounted to 0.1 ratio. The “Ratio over Background” value stood at 8.9 fold in assay [2] and 0.6 fold in assay [3]. In addition, the “IGF-1R/IR Comparison” value in assay [4] is 13.8 ratio.

As for RGQSDAFYSGLWALIGLSDG [R20β-4-A6-IR], the “IR/IGF-1R Comparison” value in assay [1] came to 0.1 ratio. The “Ratio over Background” value in assay [2] came to 25.9 fold; in assay [3], 1.5 fold. In addition, in assay [4], the “IGF-1R/IR Comparison” value was found to be 17.3 ratio.

For the molecule TFYSCLASLLTGTPQPNRGPWERCR (disulfide 5-24 (inferred)) [20C-3-G3-IGFR], the “IR/IGF-1R Comparison” value in assay [1] was below 0.1 ratio. Also, the “Ratio over Background” value is 32.3 fold in assay [2] and 1.2 fold in assay [3]. Also, the “IGF-1R/IR Comparison” value in assay [4] came out at 27 ratio.

GAPVDQLHEDFYDWFVRQVSQAATG [E2CA-2-B2-IGFR]: the “IR/IGF-1R Comparison” value in assay [1] was found to be 0.3 ratio. Moreover, the “Ratio over Background” value in assay [2] worked out at 3.4 fold; in assay [3] it was 1 fold. Moreover, the “IGF-1R/IR Comparison” value in assay [4] was determined as 3.5 ratio.

LGYQEPFQQNFYDWFVRQVSGAENAG [E2CA-3-E8-IGFR]: the “IR/IGF-1R Comparison” value in assay [1] was determined as 0.3 ratio. The “Ratio over Background” value in assay [2] was 6.3 fold; in assay [3] it was 2.2 fold. Besides, in assay [4], the “IGF-1R/IR Comparison” value was found to be 2.9 ratio.

For RCGRELYHSTFYDWFDRQVAGRTCPS [H2CA-1-A7-IGFR], the “IR/IGF-1R Comparison” value in assay [1] stood at 0.3 ratio. For the same molecule, the “Ratio over Background” value in assay [2] is 2.2 fold; in assay [3] it was 0.6 fold. Moreover, the “IGF-1R/IR Comparison” value in assay [4] is 3.7 ratio.

As for KLHNLMFYYGLQRLVWGAGLG [20E2B-4-H3-IGFR], in assay [1], the “IR/IGF-1R Comparison” value was found to be 0.1 ratio. In addition, the entries for the “Ratio over Background” value in assay [2] and in assay [3] were 14.8 fold and 1.1 fold, respectively. In assay [4], the “IGF-1R/IR Comparison” value was found to be 13.9 ratio.

Regarding TSEVQRRSQDNFYDWFVAQVA [A6S-3-E2-IR], in assay [1], the “IR/IGF-1R Comparison” value stood at 0.4 ratio. Further, the “Ratio over Background” value worked out at 24.7 fold in assay [2] and 9.8 fold in assay [3]. The “IGF-1R/IR Comparison” value in assay [4] turned out to be 2.5 ratio.

On to VEGRGLFYDLLRQLLARRQNG [20E2B-3-C6-IGFR], for which the “IR/IGF-1R Comparison” value in assay [1] stood at 0.1 ratio. In addition, the “Ratio over Background” value worked out at 16.8 fold in assay [2] and 1.1 fold in assay [3]. Also, in assay [4], the “IGF-1R/IR Comparison” value was determined as 14.8 ratio.

Consider VERSASSQDGNFYDWFVVQIR [A6S-2-D1-IR], for which the “IR/IGF-1R Comparison” value in assay [1] is 0.4 ratio. Moreover, the “Ratio over Background” value in assay [2] was found to be 30.6 fold; in assay [3], 12 fold. Moreover, the “IGF-1R/IR Comparison” value in assay [4] worked out at 2.6 ratio.

As to FFYDCLAALLQGVARYHDLCAVEIT (disulfide 5-20 (inferred)) [20C-4-C7-IGFR], the “IR/IGF-1R Comparison” value in assay [1] is below 0.1 ratio. In addition, the results for the “Ratio over Background” value in assay [2] and in assay [3] were 28 fold and 1.3 fold, respectively. Moreover, the “IGF-1R/IR Comparison” value in assay [4] amounted to 21.8 ratio.

Regarding SQAGSAFYAWFDQVLRTVHSA [20E2Bβ-4-G6-IR], the “IR/IGF-1R Comparison” value in assay [1] is 0.3 ratio. For the same molecule, the “Ratio over Background” value was determined as 6.2 fold in assay [2] and 1.9 fold in assay [3]. Moreover, the “IGF-1R/IR Comparison” value in assay [4] amounted to 3.3 ratio.

GVRAMSFYDALVSVLGLGPSG [20E2B-1-A6-IGFR]: in assay [1], the “IR/IGF-1R Comparison” value stood at 0.1 ratio. The “Ratio over Background” value in assay [2] is 18.1 fold; in assay [3], 1.1 fold. In addition, the “IGF-1R/IR Comparison” value in assay [4] stood at 16.8 ratio.

On to QGGSASFYDAIDRLLRMRIGG [20E2A-4-F11-IGFR], for which the “IR/IGF-1R Comparison” value in assay [1] came to 0.1 ratio. Moreover, the results for the “Ratio over Background” value in assay [2] and in assay [3] were 18.8 fold and 1.3 fold, respectively. For the same molecule, the “IGF-1R/IR Comparison” value in assay [4] turned out to be 14.6 ratio.
